Measurements from US20250263482A1 (SHIJIAZHUANG YILING PHARMACEUTICAL, published 2025).

Target: T1, human CLDN18.2 expressed on cells (human)
T1 construct: Tight junction membrane protein; also called huCLDN18.2
Assay: flow cytometry (geometric mean) on CLDN18.2-expressing 293T cells, Alexa Fluor 647 anti-human IgG Fc secondary
Procedure: CLDN18.2-expressing 293T cells and CLDN18.1-expressing 293T cells at a density of 2×10⁶ cells/ml in FACS buffer ([…]) were mixed with a dilution series ([…] in FACS buffer) of the chimeric antibodies, the reference antibody, or a IgG negative control (50 μL) in a 96-well V-bottom plate and incubated for 30 min on ice. After a wash with 200 μL/well FACS buffer, cells were resuspended in 30 μL/well secondary antibody Alexa Fluor® 647 AffiniPure Goat Anti-Human IgG, […] specific (Jackson, Cat. #109-605-098) and incubated for 20 min on ice. After three washes with 200 μL/well FACS buffer, cells were resuspended with 150 μl/well FACS buffer and subjected to FACS using BD LSR II Flow Cytometer (HTS). Geometric mean was used for data analysis and plots were made using Prism GraphPad.

B1: YL-G1-19-02 (antibody, human IgG1, kappa)
heavy: not shown
light: DIVMTQSPSSLTVTAGEKVTMSCKSSQSLLNSGNQKNYLTWYQQRPGQPPKLLIYWASTRESGVPVRFTGSGSGTDFTLTISSVQAEDLAVYYCQNAYIYPLTFGTGTKLELKRTVAAPSVFIFPPSDEQLKSGTASVVCLLNNFYPREAKVQWKVDNALQSGNSQESVTEQDSKDSTYSLSSTLTLSKADYEKHKVYACEVTHQGLSSPVTKSFNRGEC
notes: also called YL-G1-02; YL-G-19-02
In the case of B1, the “EC50 (read off the curve)” value is reported as roughly 0.6 µg/mL.

B2: YL-G1-19-01 (antibody, human IgG1, kappa, V domains shown)
VH: QVQLQQSGAELVRPGTSVKVSCKASGYAFTNYLIEWVKQRPGQGLEWIGVINPGSGGTNYNEKFKGKATLTADKSSNTAYMQLSSLTSEDSAVYFCARVYYGNSFGYWGQGTLVTVSA
VL: DIVMTQSPSSLTVTAGEKVTMSCKSSQSLLNSGNQKNYLTWYQQKPGQPPKLLIYWASTRESGVPDRFTGSGSGTDFTLTISSVQAEDLAVYYCQNEYFYPFTFGSGTKLEIKR
notes: also called 1st generation chimeric antibody
With B2 the “EC50 (read off the curve)” value was roughly 0.8 µg/mL.
